The values below come from PMC8288866, “MKRN3 regulates the epigenetic switch of mammalian puberty via ubiquitination of MBD3” (National Science Review, 2020).

Data set [1] concerns the target T1, MBD3 (Homo sapiens) (UniProt O95983).
T1 sequence: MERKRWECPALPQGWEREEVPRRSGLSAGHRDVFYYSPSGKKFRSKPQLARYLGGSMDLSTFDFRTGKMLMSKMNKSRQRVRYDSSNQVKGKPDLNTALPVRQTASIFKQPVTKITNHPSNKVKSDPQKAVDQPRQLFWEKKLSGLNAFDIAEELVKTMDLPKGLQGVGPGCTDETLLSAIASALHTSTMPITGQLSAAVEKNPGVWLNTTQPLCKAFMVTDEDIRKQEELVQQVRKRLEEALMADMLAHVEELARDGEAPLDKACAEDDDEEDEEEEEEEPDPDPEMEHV
In words: EMSA. The following applies: EMSA with 32P-labeled PCR probes, binding buffer, salt, pH and temperature not in the material.

Data set [2] addresses T1, MBD3 (Homo sapiens). Put plainly: competition. The note with it: EMSA with 32P-labeled PCR probes, binding buffer, salt, pH and temperature not in the material.
Data set [3] deals with T2, recombinant MKRN3 protein (GST-tagged) (human, UniProt Q13064 1-507).
T2 construct: MKRN3 (Makorin ring finger protein 3), human, E3 ubiquitin ligase; also called Makorin ring finger protein 3; source: recombinant
T2 sequence (looked up): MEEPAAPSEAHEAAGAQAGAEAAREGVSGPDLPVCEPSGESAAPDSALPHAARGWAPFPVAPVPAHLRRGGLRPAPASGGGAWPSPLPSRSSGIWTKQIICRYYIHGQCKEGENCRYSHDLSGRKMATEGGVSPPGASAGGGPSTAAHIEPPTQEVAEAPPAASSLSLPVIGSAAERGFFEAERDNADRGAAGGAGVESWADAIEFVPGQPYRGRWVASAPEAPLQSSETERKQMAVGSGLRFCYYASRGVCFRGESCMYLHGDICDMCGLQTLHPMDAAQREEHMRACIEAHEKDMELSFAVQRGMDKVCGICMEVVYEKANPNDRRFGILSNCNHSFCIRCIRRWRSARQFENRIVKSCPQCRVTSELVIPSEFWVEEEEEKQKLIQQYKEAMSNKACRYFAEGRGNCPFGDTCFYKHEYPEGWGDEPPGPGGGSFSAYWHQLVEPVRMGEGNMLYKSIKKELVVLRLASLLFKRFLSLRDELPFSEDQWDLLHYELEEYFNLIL
In words: pull-down; GST pull-down of MKRN3 protein with His6-tagged MBD3, in vitro. The following applies: both partners purified.

With “TTCTTCAGCTTTGGGACTCAGACTGGCTTTCCTTGCTCCTCAGCTTGCGGACGGCCTACTGTGGGACCTTGGGATCGTGTGAGTTAATACTTAATAAACTCTCCTATGTGCGTGTGTTTGTGTGTGTGTGTGTGTGTGTATGTATTCTGTCCCTCTAGAGAATGCTGAGTAATACA (double strand) [GNRH1 promoter unmodified C probe]”, the binding entry with MBD3 (Homo sapiens) [1] is on record as “binds more weakly”.

On to “TTCTTCAGCTTTGGGACTCAGACTGGCTTTCCTTGCTCCTCAGCTTGCGGACGGCCTACTGTGGGACCTTGGGATCGTGTGAGTTAATACTTAATAAACTCTCCTATGTGCGTGTGTTTGTGTGTGTGTGTGTGTGTGTATGTATTCTGTCCCTCTAGAGAATGCTGAGTAATACA (double strand) [GNRH1 promoter 5hmC probe]”, for which the binding result with MBD3 (Homo sapiens) [1] (all cytosines 5-hydroxymethylcytosine (PCR with 5hm-dCTP; primer-derived cytosines presumably unmodified)) is recorded as “binds”.

In the case of “TTCTTCAGCTTTGGGACTCAGACTGGCTTTCCTTGCTCCTCAGCTTGCGGACGGCCTACTGTGGGACCTTGGGATCGTGTGAGTTAATACTTAATAAACTCTCCTATGTGCGTGTGTTTGTGTGTGTGTGTGTGTGTGTATGTATTCTGTCCCTCTAGAGAATGCTGAGTAATACA (double strand) [GNRH1 promoter 5mC probe]”, the binding entry with MBD3 (Homo sapiens) [1] (5-methylcytosine (PCR with 5m-dCTP; primer-derived cytosines presumably unmodified)) is on record as “no binding”.

Take “TTCTTCAGCTTTGGGACTCAGACTGGCTTTCCTTGCTCCTCAGCTTGCGGACGGCCTACTGTGGGACCTTGGGATCGTGTGAGTTAATACTTAATAAACTCTCCTATGTGCGTGTGTTTGTGTGTGTGTGTGTGTGTGTATGTATTCTGTCCCTCTAGAGAATGCTGAGTAATACA (double strand) [GNRH1 promoter unmodified competitor]”: in the data set with MBD3 (Homo sapiens) [2], the binding entry is recorded as “binds more weakly”.

Consider “TTCTTCAGCTTTGGGACTCAGACTGGCTTTCCTTGCTCCTCAGCTTGCGGACGGCCTACTGTGGGACCTTGGGATCGTGTGAGTTAATACTTAATAAACTCTCCTATGTGCGTGTGTTTGTGTGTGTGTGTGTGTGTGTATGTATTCTGTCCCTCTAGAGAATGCTGAGTAATACA (double strand) [GNRH1 promoter 5hmC competitor]”, for which the binding result in the data set with MBD3 (Homo sapiens) [2] (5-hydroxymethylcytosine) is “binds”.

B1: His6-tagged MBD3 (natural protein, human, UniProt O95983 1-291, looked up)
chain: MERKRWECPALPQGWEREEVPRRSGLSAGHRDVFYYSPSGKKFRSKPQLARYLGGSMDLSTFDFRTGKMLMSKMNKSRQRVRYDSSNQVKGKPDLNTALPVRQTASIFKQPVTKITNHPSNKVKSDPQKAVDQPRQLFWEKKLSGLNAFDIAEELVKTMDLPKGLQGVGPGCTDETLLSAIASALHTSTMPITGQLSAAVEKNPGVWLNTTQPLCKAFMVTDEDIRKQEELVQQVRKRLEEALMADMLAHVEELARDGEAPLDKACAEDDDEEDEEEEEEEPDPDPEMEHV
notes: MBD3, human; also called recombinant MBD3; recombinant human MBD3 protein; source: recombinant
Consider B1, for which, in data set [3], the binding result is listed as “binds”.
